Measured values reported in the supplement of paper PMC12042874.
± gives the uncertainty stated by the source.

Test: amyloid nucleation score (Sup35N fusion, yeast selection) (log enrichment); library NNK2; higher = more nucleation; inactive = no reads after selection
In short: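 Growth for 7 days at 30°C on medium lacking adenine and uracil followed a 24-hour induction with 100 μM copper sulfate of psi-negative yeast expressing peptides of 20 random codons fused to Sup35N. Input and output plasmid inserts were sequenced with Illumina, and sequences with under 100 input reads were excluded. Nucleation score is the DiMSum log enrichment of output over input reads, centred on the mode score of non-aggregating sequences.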

## IHLQIWAFFMLRIPPGRNKT
  amyloid nucleation score: -0.636 ± 0.76

## LLNRSRSL
  amyloid nucleation score: -0.723 ± 0.45

## TALDAGHA
  amyloid nucleation score: -1.19 ± 0.45

## KFHGSVNGMFPAREITRDLR
  amyloid nucleation score: 0.316 ± 0.23

## FPGWGIDPTYKVKVRWMNRA
  amyloid nucleation score: 0.566 ± 0.33

## ITSHVDAAVEFPNVSFSHGV
  amyloid nucleation score: 1.37 ± 0.47

## VTLIRSSRVATSCHGGTLFC
  amyloid nucleation score: 3.45 ± 0.092

## CYFSDPVHLENPSINSISFW
  amyloid nucleation score: inactive

## PFYTYSKYKCTKFTDNYYAQ
  amyloid nucleation score: -1.02 ± 1.1

## YFPIASALNCSLGCARCCES
  amyloid nucleation score: 0.669 ± 0.74

## RAFYLVTSPDFYFCRILGAT
  amyloid nucleation score: inactive

## MFEVWFLESRHFINWGICSS
  amyloid nucleation score: inactive

## MPLQFDPVWFILNTLLRPHA
  amyloid nucleation score: -0.228 ± 0.42

## NPIGFFHDLGVWIWWSSMAT
  amyloid nucleation score: -1.26 ± 1.1

## FIDVHMEYRDKTRCWLVLVL
  amyloid nucleation score: -0.891 ± 0.78

## IDVMVMVRQSAKEQSSVRGC
  amyloid nucleation score: 1.34 ± 0.2

## SMILVHKSNLQFLGKDDTQS
  amyloid nucleation score: 6.539 ± 0.025

## YLLALRCLFLLYRVYWFSIE
  amyloid nucleation score: -0.129 ± 0.39

## VETYT
  amyloid nucleation score: 0.022 ± 0.65

## HHKLLGWFDVEKGMPVRLWA
  amyloid nucleation score: 0.148 ± 0.43

## REHSYLSIFLWMCAFVTNVE
  amyloid nucleation score: -0.98 ± 1.1

## CNRESEWIECVRGFLEYANG
  amyloid nucleation score: 1.44 ± 0.11

## FGLSITECGWVVLCMVWVPR
  amyloid nucleation score: 0.246 ± 0.17

## MGGGNCLVRFKRYEFPFDIP
  amyloid nucleation score: -1.61 ± 0.54

## MVFFLLQLATAAVFSF
  amyloid nucleation score: -0.073 ± 1

## RFDSDNTFDPGRWYSCSQDA
  amyloid nucleation score: -0.346 ± 0.53

## TCPCRYLDVNIDAMFVTMDI
  amyloid nucleation score: 7.789 ± 0.056

## LSYNQD
  amyloid nucleation score: -0.581 ± 0.64

## TYLVQWMCCRWMPMHFRIMT
  amyloid nucleation score: -0.369 ± 0.79

## MNHISLFFRSEVQVCGVFC
  amyloid nucleation score: 8.609 ± 0.052

## RLFANASGVDMEGTGYNRSD
  amyloid nucleation score: 0.359 ± 0.4

## NYVNICFNLKFQVRHST
  amyloid nucleation score: 4.41 ± 0.089

## SRHRVLFFYKFVCLIWV
  amyloid nucleation score: -0.8 ± 0.74

## QPSVL
  amyloid nucleation score: 0.524 ± 0.81

## FSRADTVF
  amyloid nucleation score: 2.79 ± 0.13

## HNGIMFTCYLSP
  amyloid nucleation score: 5.944 ± 0.053

## VVRMRENKRNIL
  amyloid nucleation score: inactive

## SSFHWPIKSRDAGVAWSRGG
  amyloid nucleation score: 2.07 ± 0.18

## NDSTLGRLSYNLRDLRSQKM
  amyloid nucleation score: -0.502 ± 0.79

## KHIFFLREVVNYFMRRTKGL
  amyloid nucleation score: -0.507 ± 0.64

## KDYPLAGSLVTKL
  amyloid nucleation score: 0.317 ± 0.62

## RITDYRCLTMNKGQSARNQG
  amyloid nucleation score: inactive

## MMGECNFCSIGRH
  amyloid nucleation score: 4.83 ± 0.078

## GPNDWRNCFRD
  amyloid nucleation score: 0.401 ± 0.56

## RTRLYIDQRRKAFYPGLGFS
  amyloid nucleation score: 0.347 ± 0.55

## VLWIGFYLNLYLPYLCNHVD
  amyloid nucleation score: 3.37 ± 0.076

## GSWLLGMMVLQRILMNG
  amyloid nucleation score: 1.41 ± 0.44

## FHIQTRCMCGGMRYIFYVWY
  amyloid nucleation score: 0.432 ± 0.8

## QVALGNVCNRLYTLMARQAN
  amyloid nucleation score: -0.283 ± 0.26

## HVIVMYGSIY
  amyloid nucleation score: 3.19 ± 0.12

## TYLWSLGYVSFQL
  amyloid nucleation score: -0.206 ± 0.79

## LSYNVLLGRIEIPWVSFSRM
  amyloid nucleation score: 3.94 ± 0.068

## KDKGKNDRAIAWVLWGICVL
  amyloid nucleation score: 0.51 ± 0.51

## NRHMLNTDRRPQVRLHFGTL
  amyloid nucleation score: 0.232 ± 0.37

## LMMSVWF
  amyloid nucleation score: 5.48 ± 0.063

## RRLLGRLFLGTTSKLYVGDL
  amyloid nucleation score: -0.147 ± 0.26

## SSNSANVILASYEDYRRVNP
  amyloid nucleation score: -0.526 ± 0.79

## DFSAFNEGHQINHLIQGSV
  amyloid nucleation score: -1.35 ± 0.62

## ACYIR
  amyloid nucleation score: 1.02 ± 0.17

## EPTMVRFDSLFVSDCYMSA
  amyloid nucleation score: 0.499 ± 0.4

## NIPAYTSMTFVLWTIL
  amyloid nucleation score: -0.153 ± 0.37

## PQRLWISISAHTLKFPHL
  amyloid nucleation score: 3.77 ± 0.073

## YMSIHSKAGMVSLDLKCLCT
  amyloid nucleation score: -0.427 ± 1

## SHCGHRSATGVLSPLQTKGH
  amyloid nucleation score: -0.159 ± 0.54

## LYSLYTYVKRYCASRVRHRY
  amyloid nucleation score: 0.688 ± 0.81

## VSHILINVSRGLRGS
  amyloid nucleation score: -0.261 ± 0.8

## RPVSSFVSASGSRSGLQSLK
  amyloid nucleation score: 0.085 ± 0.8

## LVVKGDLFAIYVCPCLCRGS
  amyloid nucleation score: 9.397 ± 0.051

## LNYDNFE
  amyloid nucleation score: inactive

## ESHFCLLATVMKDNLTVGSM
  amyloid nucleation score: -0.578 ± 0.45

## DDFNERSSLHVVYDRF
  amyloid nucleation score: -0.901 ± 1

## FRSGGPLFFHSMGTGFVFVH
  amyloid nucleation score: -1.5 ± 1.1

## QYVVNLFYPLYMEKKCWSSI
  amyloid nucleation score: 6.288 ± 0.039

## LRFPRWSPADGDSILHTTSQ
  amyloid nucleation score: 0.673 ± 0.66

## PCITLAFPVNKSRF
  amyloid nucleation score: -0.363 ± 1.1

## DGLFGVTTWNSLFLWILKR
  amyloid nucleation score: -1.1 ± 0.62

## TVLFKGLRYRRNFKFGTQTT
  amyloid nucleation score: -0.056 ± 0.76

## SWFRFCMYWFSDCRNILGS
  amyloid nucleation score: 4.58 ± 0.051

## GLLPFGISAMNLRFHQGVAR
  amyloid nucleation score: -0.359 ± 0.2

## GPFLMSVTLVYLFVFMFERL
  amyloid nucleation score: -0.769 ± 0.36

## MTFVHVSNMWDRNEGICGDE
  amyloid nucleation score: -0.323 ± 0.41

## VFSSFWVYKLYEFEASSNVR
  amyloid nucleation score: -0.371 ± 0.45

## LAMYLWCTELP
  amyloid nucleation score: -0.057 ± 0.63

## HVISTSW
  amyloid nucleation score: inactive

## LNRYYSLPRLSVPSSVRSCG
  amyloid nucleation score: -1.18 ± 0.44
